The target in the experiment is HVEM expressed on cell lines (KTPloCD86A2 HVEM; K562CD19/HVEM) (UniProt Q92956). The experiment in a line: cell-based or functional assay. To be noted: scale: times higher than CD19-28z electroporated T cells.
Sequence of UniProt Q92956 (Q92956 39-283 limits assumed): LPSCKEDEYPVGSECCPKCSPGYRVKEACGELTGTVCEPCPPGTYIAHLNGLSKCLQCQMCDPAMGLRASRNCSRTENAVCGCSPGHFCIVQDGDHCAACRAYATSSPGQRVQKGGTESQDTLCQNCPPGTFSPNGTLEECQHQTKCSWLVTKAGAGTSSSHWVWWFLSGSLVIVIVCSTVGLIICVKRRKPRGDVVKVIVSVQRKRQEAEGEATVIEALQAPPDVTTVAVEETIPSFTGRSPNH

Consider BTLA-CD28 CCR (receptor), for which the IL-2 production (ELISA) of T cells co-electroporated with CD19z and BTLA-CD28 CCR was determined as 4.

Source of the values: patent US20260022155A1.
